Assay results as given in article PMC6668441, “Comparative Study of Subcutaneous and Orthotopic Mouse Models of Prostate Cancer: Vascular Perfusion, Vasculature Density, Hypoxic Burden and BB2r-Targeting Efficacy” (Scientific Reports, 2019).

Legend:
[1] = Biodistribution, BB2r-targeted uptake, orthotopic PC-3 xenograft model; conditions: male, NOD SCID, mouse, iv, total radioactivity, orthotopic model, 10 µCi i.v., 1 h 5 min p.i., mean ± SD; for dose excreted at 65 min: urine and faeces, excretion (urine and fecal material)
Experimental: (§1) For the subcutaneous model, 5-week old female SCID mice were inoculated in the flanks with 5 × 10^6 PC-3 cells (American Type Culture Collection (ATCC), VA) in Matrigel®. The tumor size was monitored by caliper. For the generation of the orthotopic model, the PC-3-Luc cells were selected by 0.5 µg/mL puromycin twice before inoculation. The male 6-weeks SCID mice were anesthetized, the muscles of the abdomen area were cut after retracting the skin, and the prostate gland exposed. 50 μL of PC-3-Luc cell suspension at 0.5 × 10^6/mL in Matrigel® was injected into a dorsal prostatic lobe. The wound was closed in two layers and the skin was clipped. Animals were given analgesic drugs for 3 days and the tumors were monitored by an IVIS optical imaging system.
(§2) The mice were injected, monitored and dissected in the lab with the temperature of 23 °C and 17% relative humidity. All animals were awake until sacrifice. The body weight, tumor volume and tumor luminescence of the mice were recorded every three days. At four-to-seven weeks post-xenograft implantation, the mice were divided into three groups by tumor volume: <300, 300–700 and >700 mm^3 in both animal models. […] Each mouse (average weight: 20 g for female mice and 25 g for male mice) was treated with pimonidazole solution (80 mg/kg in PBS) via intraperitoneal injection. […] After an additional 1 h, the mice were injected intravenously with a PBS solution containing 10 µCi (370 kBq) of [^99mTc]NaTcO4 and 15 mg/kg Hoechst 33342. The animals were sacrificed 5 minutes later, and their tissues collected. The excised tissues were weighed, the radioactivity for each tissue was measured by γ-counter and the percentage injected dose per gram (%ID/g) was calculated for each tissue. […]
(§3) Establishment of Stably Transfected PC-3-Luc Cells
(§4) To generate the PC-3-Luc cells, we utilized pre-made lentivirus particles encoding luciferase and GFP (EF1a-Luciferase (firefly)-2A-GFP (Puro), AMSBIO) for transfection. Briefly, normal PC-3 cells were seeded in a 24-well plate using 0.5 mL of medium containing 0.5 × 10^5 cells/mL and incubated overnight. The medium was removed and replaced with 0.5 mL of fresh medium pre-mixed with 2.5 ȝL TransduxTM. To each well was added 2 ȝL of the lentivirus particle solution and swirled to mix. The plate was returned to the incubator and cultured for 3 days. Once the cells grew to confluence, they were harvested and transferred to larger plates (from 6-well plates to 60 mm dishes). 1.5 mL of suspended cells in PBS at a concentration of 5 × 10^6/mL was sorted by the FACS method to give the GFP positive (PC-3-Luc) cells that were returned to culture for in vitro and in vivo studies.
(§5) The normal PC-3 cells and PC-3-Luc were cultured in our laboratory, as per ATCC protocols, in Ham’s F-12K medium containing 10% FBS, 2.5 mM L-glutamine, 15 mM HEPES and 0.5 mM sodium pyruvate. Cells were incubated at 37 °C […]
(§6) All animal experiments were performed in accordance with the NIH animal use guideline and protocol approved by the […]

[2] = test system: orthotopic PC-3 xenografts; assay: as above
Experimental: as §1, §2, §3, §4, §5, §6

CSCC[C@H](NC(=O)[C@H](CC(C)C)NC(=O)[C@H](Cc1c[nH]cn1)NC(=O)CNC(=O)[C@@H](NC(=O)[C@H](C)NC(=O)[C@H](Cc1c[nH]c2ccccc12)NC(=O)[C@H](CCC(N)=O)NC(=O)CCOCCOCCOCCOCCNC(=O)[C@@H](CO)NC(=O)[C@@H](CO)NC(=O)[C@@H](CO)NC(=O)[C@@H](CO)NC(=O)[C@@H](CO)NC(=O)CN1CCN(CC(=O)O)CCN(CC(=O)O)CCN(CC(=O)O)CC1)C(C)C)C(N)=O [[^177Lu]Lu-DOTA-SP714, metal not drawn]
tissue uptake at 65 min ([1]; blood, 10 uCi, blood uptake, tumor volume 300-700 mm^3): 0.33 ± 0.14 %ID/g
tissue uptake at 65 min ([1]; blood, 10 uCi, blood uptake, tumor volume <300 mm^3): 0.27 ± 0.19 %ID/g
tissue uptake at 65 min ([1]; blood, 10 uCi, blood uptake, tumor volume >700 mm^3): 0.57 ± 0.12 %ID/g
tissue uptake at 65 min ([1]; bone, 10 uCi (370 kBq), bone uptake, tumor volume 300-700 mm^3): 0.46 ± 0.22 %ID/g
tissue uptake at 65 min ([1]; bone, 10 uCi (370 kBq), bone uptake, tumor volume <300 mm^3): 0.29 ± 0.22 %ID/g
tissue uptake at 65 min ([1]; bone, 10 uCi (370 kBq), bone uptake, tumor volume >700 mm^3): 0.53 ± 0.24 %ID/g
tissue uptake at 65 min ([1]; brain, 10 uCi (370 kBq), brain uptake, tumor volume 300-700 mm^3): 0.06 ± 0.03 %ID/g
tissue uptake at 65 min ([1]; brain, 10 uCi (370 kBq), brain uptake, tumor volume <300 mm^3): 0.03 ± 0.01 %ID/g
tissue uptake at 65 min ([1]; brain, 10 uCi (370 kBq), brain uptake, tumor volume >700 mm^3): 0.06 ± 0.02 %ID/g
tissue uptake at 65 min ([1]; heart, 10 uCi (370 kBq), heart uptake, tumor volume 300-700 mm^3): 0.39 ± 0.49 %ID/g
tissue uptake at 65 min ([1]; heart, 10 uCi (370 kBq), heart uptake, tumor volume <300 mm^3): 0.13 ± 0.09 %ID/g
tissue uptake at 65 min ([1]; heart, 10 uCi (370 kBq), heart uptake, tumor volume >700 mm^3): 0.3 ± 0.17 %ID/g
tissue uptake at 65 min ([1]; kidney, 10 uCi (370 kBq), kidney uptake, tumor volume 300-700 mm^3): 4.8 ± 4.92 %ID/g
tissue uptake at 65 min ([1]; kidney, 10 uCi (370 kBq), kidney uptake, tumor volume <300 mm^3): 3.4 ± 0.92 %ID/g
tissue uptake at 65 min ([1]; kidney, 10 uCi (370 kBq), kidney uptake, tumor volume >700 mm^3): 5.98 ± 3.08 %ID/g
tissue uptake at 65 min ([1]; large intestine, 10 uCi (370 kBq), large intestine uptake, tumor volume 300-700 mm^3): 4.52 ± 1.31 %ID/g
tissue uptake at 65 min ([1]; large intestine, 10 uCi (370 kBq), large intestine uptake, tumor volume <300 mm^3): 2.06 ± 1.02 %ID/g
tissue uptake at 65 min ([1]; large intestine, 10 uCi (370 kBq), large intestine uptake, tumor volume >700 mm^3): 4.07 ± 1.91 %ID/g
tissue uptake at 65 min ([1]; liver, 10 uCi (370 kBq), liver uptake, tumor volume 300-700 mm^3): 0.4 ± 0.18 %ID/g
tissue uptake at 65 min ([1]; liver, 10 uCi (370 kBq), liver uptake, tumor volume <300 mm^3): 0.26 ± 0.07 %ID/g
tissue uptake at 65 min ([1]; liver, 10 uCi (370 kBq), liver uptake, tumor volume >700 mm^3): 0.52 ± 0.19 %ID/g
tissue uptake at 65 min ([1]; lung, 10 uCi (370 kBq), lung uptake, tumor volume 300-700 mm^3): 0.92 ± 0.41 %ID/g
tissue uptake at 65 min ([1]; lung, 10 uCi (370 kBq), lung uptake, tumor volume <300 mm^3): 0.82 ± 0.5 %ID/g
tissue uptake at 65 min ([1]; lung, 10 uCi (370 kBq), lung uptake, tumor volume >700 mm^3): 1.28 ± 0.47 %ID/g
tissue uptake at 65 min ([1]; muscle, 10 uCi (370 kBq), muscle uptake, tumor volume 300-700 mm^3): 0.22 ± 0.1 %ID/g
tissue uptake at 65 min ([1]; muscle, 10 uCi (370 kBq), muscle uptake, tumor volume <300 mm^3): 0.23 ± 0.12 %ID/g
tissue uptake at 65 min ([1]; muscle, 10 uCi (370 kBq), muscle uptake, tumor volume >700 mm^3): 0.48 ± 0.34 %ID/g
tissue uptake at 65 min ([1]; pancreas, 10 uCi (370 kBq), pancreas uptake, tumor volume 300-700 mm^3): 40.1 ± 11.5 %ID/g
tissue uptake at 65 min ([1]; pancreas, 10 uCi (370 kBq), pancreas uptake, tumor volume <300 mm^3): 30 ± 12.5 %ID/g
tissue uptake at 65 min ([1]; pancreas, 10 uCi (370 kBq), pancreas uptake, tumor volume >700 mm^3): 37.2 ± 7.29 %ID/g
tissue uptake at 65 min ([1]; small intestine, 10 uCi (370 kBq), small intestine uptake, tumor volume 300-700 mm^3): 3.74 ± 1.15 %ID/g
tissue uptake at 65 min ([1]; small intestine, 10 uCi (370 kBq), small intestine uptake, tumor volume <300 mm^3): 2.97 ± 0.66 %ID/g
tissue uptake at 65 min ([1]; small intestine, 10 uCi (370 kBq), small intestine uptake, tumor volume >700 mm^3): 3.8 ± 1.46 %ID/g
tissue uptake at 65 min ([1]; spleen, 10 uCi (370 kBq), spleen uptake, tumor volume 300-700 mm^3): 2.02 ± 3.14 %ID/g
tissue uptake at 65 min ([1]; spleen, 10 uCi (370 kBq), spleen uptake, tumor volume <300 mm^3): 1.77 ± 1.19 %ID/g
tissue uptake at 65 min ([1]; spleen, 10 uCi (370 kBq), spleen uptake, tumor volume >700 mm^3): 2.91 ± 4.89 %ID/g
tissue uptake at 65 min ([1]; stomach, 10 uCi (370 kBq), stomach uptake, tumor volume 300-700 mm^3): 1.59 ± 0.9 %ID/g
tissue uptake at 65 min ([1]; stomach, 10 uCi (370 kBq), stomach uptake, tumor volume <300 mm^3): 1.07 ± 0.53 %ID/g
tissue uptake at 65 min ([1]; stomach, 10 uCi (370 kBq), stomach uptake, tumor volume >700 mm^3): 1.46 ± 0.62 %ID/g
tissue uptake at 65 min ([1]; tumor, 10 uCi, tumor uptake, tumor volume 300-700 mm^3): 8.55 ± 2.65 %ID/g
tissue uptake at 65 min ([1]; tumor, 10 uCi, tumor uptake, tumor volume <300 mm^3): 8.07 ± 3.23 %ID/g
tissue uptake at 65 min ([1]; tumor, 10 uCi, tumor uptake, tumor volume >700 mm^3): 11.1 ± 2.88 %ID/g
dose excreted at 65 min ([1]; 10 uCi, tumor volume 300-700 mm^3): 67.2 ± 8.53%
dose excreted at 65 min ([1]; 10 uCi, tumor volume <300 mm^3): 60.8 ± 29.3%
dose excreted at 65 min ([1]; 10 uCi, tumor volume >700 mm^3): 60.2 ± 10.8%
blood retention values between the two models ([2]; orthotopic versus subcutaneous): not statistically different
average tumor uptake, orthotopic versus subcutaneous model ([2]; tumor volume 300–700 mm^3, p = 0.011): 1.6 fold
average tumor uptake, orthotopic versus subcutaneous model ([2]; tumor volume <300 mm^3, p = 0.0055): 1.9 fold
average tumor uptake, orthotopic versus subcutaneous model ([2]; tumor volume >700 mm^3, p = 0.34): 1.2 fold
